Measurements published in paper PMC9911399, “Two distinct binding modes provide the RNA-binding protein RbFox with extraordinary sequence specificity”.
Residue numbers refer to the chain shown, from its start.

T1: RbFoxmut (RRM with four substitutions) (UniProt Q9NWB1)
T1 sequence: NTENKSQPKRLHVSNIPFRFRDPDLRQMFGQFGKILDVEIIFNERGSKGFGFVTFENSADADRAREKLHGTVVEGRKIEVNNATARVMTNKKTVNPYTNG

T2: RBFOX1 RRM RbFoxmut (Fox-RRM*) (Homo sapiens, UniProt Q9NWB1 109-208, R118D;E147R;N151S;E152T)
T2 sequence: T1 sequence with R10D, E39R, N43S, E44T

T3: RBFOX1 RRM (Homo sapiens, UniProt Q9NWB1 109-208)
T3 sequence: T1 sequence

T4: RbFox RRM (wt) (UniProt Q9NWB1 109-208)
T4 sequence: T1 sequence

B1: UGCAUGU (ssRNA)
RNA: UGCAUGU
B2: UGAAUGU (ssRNA)
RNA: UGAAUGU
B3: UGCAUGU (cognate) (ssRNA)
RNA: UGCAUGU

Key:
[1] = target: T1, RbFoxmut (RRM with four substitutions); experiment: EMSA; settings: EMSA: 10 mM Tris pH 7.5, 150 mM NaCl, 3.4 mM EDTA, 0.001% NP-40, 30 C, 10 min, 1 nM RNA, 8% native PAGE; NMR: 10 mM sodium phosphate pH 6.0, 30 mM NaCl, 298 K …
[2] = target: T2, RBFOX1 RRM RbFoxmut (Fox-RRM*); experiment: EMSA; 10 mM Tris pH 7.5, 150 mM NaCl, 3.4 mM EDTA, 0.001% NP-40, 30 C; settings: tags: His6 N-terminal (pET28a); label: 5' 32P
RBFOX1 RRM = target: T3, RBFOX1 RRM; experiment: as above; settings: tags: His6 N-terminal (pET28a); label: 5' 32P
RbFox RRM (wt) = target: T4, RbFox RRM (wt); experiment: EMSA; EMSA: 10 mM Tris pH 7.5, 150 mM NaCl, 3.4 mM EDTA, 0.001% NP-40, 30 C, 10 min, 1 nM RNA, 8% native PAGE; NMR: 10 mM sodium phosphate pH 6.0, 30 mM NaCl, 298 K; settings: protein: recombinant; tags: His6 (HisTrap) for EMSA; His6-GST removed by TEV for NMR; label: 5' 32P (EMSA); unlabeled (NMR)

| Molecule | K half [1] [nM] | apparent K (half saturation) [2] [nM] | also measured |
| --- | --- | --- | --- |
| UACAUGU | – | – | binding signal [1]: -5.01 ln(KA,rel) |
| UGCAUGU [UGCAUGU (cognate)] | 14.3 | – | – |
| UGAAUGU | 35.3 | – | – |
| B1 | – | 14.3 ± 2.5 | – |
| B2 | – | 35.3 ± 11.8 | apparent K (half saturation) (RBFOX1 RRM): > 17 µM |
| B3 | – | – | apparent K (half saturation) (RbFox RRM (wt)): 1.6 ± 0.3 nM |
